Earlier results as cited in publication PMC3869910.

Target: alpha-bungarotoxin (Bungarus multicinctus) (UniProt P60615)
UniProt P60615, sequence (P60615 22-95): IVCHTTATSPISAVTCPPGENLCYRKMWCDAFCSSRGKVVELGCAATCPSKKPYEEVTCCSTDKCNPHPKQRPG

Question: For “nicotinic acetylcholine receptor alpha1 (y-α1-ECD) ECD (from UniProt P02708)”, which Kd is on record?
Answer: 5 nM
